Source: paper PMC8325345

Tests used:
ecHrpA FL = target: T1, ecHrpA FL (Escherichia coli DH5-alpha, UniProt P43329 1-1300); test: fluorescence anisotropy
T1 sequence: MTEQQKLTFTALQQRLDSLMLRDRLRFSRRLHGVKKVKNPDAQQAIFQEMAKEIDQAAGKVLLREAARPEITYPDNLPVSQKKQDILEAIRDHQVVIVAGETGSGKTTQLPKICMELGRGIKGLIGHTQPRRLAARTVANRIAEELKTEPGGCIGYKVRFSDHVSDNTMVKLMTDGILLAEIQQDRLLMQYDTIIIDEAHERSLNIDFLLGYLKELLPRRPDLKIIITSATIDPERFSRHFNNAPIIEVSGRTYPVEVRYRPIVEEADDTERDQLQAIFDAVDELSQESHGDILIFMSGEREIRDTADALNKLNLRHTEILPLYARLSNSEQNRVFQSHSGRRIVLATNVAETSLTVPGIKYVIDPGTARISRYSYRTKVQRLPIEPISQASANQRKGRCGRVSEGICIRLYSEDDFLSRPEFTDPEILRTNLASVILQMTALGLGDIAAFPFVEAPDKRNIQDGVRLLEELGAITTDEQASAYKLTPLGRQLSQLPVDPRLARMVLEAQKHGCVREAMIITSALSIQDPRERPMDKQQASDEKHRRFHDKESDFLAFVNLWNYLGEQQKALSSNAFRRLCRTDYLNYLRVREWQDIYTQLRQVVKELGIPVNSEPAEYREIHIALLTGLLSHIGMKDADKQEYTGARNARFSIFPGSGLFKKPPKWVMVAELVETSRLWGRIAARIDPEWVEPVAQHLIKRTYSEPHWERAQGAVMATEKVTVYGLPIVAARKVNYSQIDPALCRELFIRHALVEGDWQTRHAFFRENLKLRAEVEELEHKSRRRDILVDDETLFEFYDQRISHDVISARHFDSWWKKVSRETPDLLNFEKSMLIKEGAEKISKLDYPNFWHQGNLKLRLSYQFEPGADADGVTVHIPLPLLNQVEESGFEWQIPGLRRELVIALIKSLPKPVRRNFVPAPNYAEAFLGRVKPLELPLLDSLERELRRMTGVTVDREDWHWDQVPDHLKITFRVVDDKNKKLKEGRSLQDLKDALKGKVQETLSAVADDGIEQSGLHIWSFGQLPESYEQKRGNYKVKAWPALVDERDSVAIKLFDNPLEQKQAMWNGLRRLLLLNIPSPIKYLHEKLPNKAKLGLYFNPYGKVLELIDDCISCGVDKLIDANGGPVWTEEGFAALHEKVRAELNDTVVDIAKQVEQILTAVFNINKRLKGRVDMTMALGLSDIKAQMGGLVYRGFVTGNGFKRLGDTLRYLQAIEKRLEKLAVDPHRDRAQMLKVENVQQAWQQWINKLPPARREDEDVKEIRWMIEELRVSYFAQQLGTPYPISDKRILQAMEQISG

ecHrpA1-783,E675A = target: T2, ecHrpA1-783,E675A (Escherichia coli DH5-alpha, UniProt P43329 1-783, E675A); test: fluorescence anisotropy
T2 sequence: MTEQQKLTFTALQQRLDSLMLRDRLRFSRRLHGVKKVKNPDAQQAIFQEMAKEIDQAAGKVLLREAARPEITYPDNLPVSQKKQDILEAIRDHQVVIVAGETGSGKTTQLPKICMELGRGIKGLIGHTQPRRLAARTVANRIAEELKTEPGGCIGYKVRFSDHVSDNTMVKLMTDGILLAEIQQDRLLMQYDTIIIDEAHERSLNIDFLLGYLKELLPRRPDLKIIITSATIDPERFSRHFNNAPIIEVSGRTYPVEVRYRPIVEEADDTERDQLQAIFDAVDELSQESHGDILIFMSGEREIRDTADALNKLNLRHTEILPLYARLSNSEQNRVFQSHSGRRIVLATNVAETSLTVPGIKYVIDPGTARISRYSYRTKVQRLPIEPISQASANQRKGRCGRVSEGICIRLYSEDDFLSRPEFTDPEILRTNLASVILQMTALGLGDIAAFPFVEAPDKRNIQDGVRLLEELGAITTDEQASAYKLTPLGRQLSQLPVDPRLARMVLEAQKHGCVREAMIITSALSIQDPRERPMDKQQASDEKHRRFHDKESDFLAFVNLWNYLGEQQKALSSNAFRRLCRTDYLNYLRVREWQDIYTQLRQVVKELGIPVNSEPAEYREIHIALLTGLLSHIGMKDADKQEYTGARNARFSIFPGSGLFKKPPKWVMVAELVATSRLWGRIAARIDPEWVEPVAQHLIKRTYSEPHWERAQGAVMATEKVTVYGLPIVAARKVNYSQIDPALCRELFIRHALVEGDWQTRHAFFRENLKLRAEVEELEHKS

Binder	binding result (ecHrpA FL)	binding signal (ecHrpA1-783,E675A)
TATAAACCAGACCGTC (ssDNA) [FAM-DNASS16]	no binding	
FAM-RNABlunt (dsRNA) RNA 1: GCUGCCAGACCAAAU RNA 2: AUUUGGUCUGGCAGC	no binding	
GCUGCCAGACCAAAU (ssRNA) [FAM-RNASS15]		~2.2 fold lower RNA binding than ecHrpA1-783
